{
  "source": "paper doi:10.1101/2022.02.13.480285",
  "target": "SiaM (M-subunit of Photobacterium profundum SiaQM) (Photobacterium profundum)",
  "assay": "AUC",
  "data": [
    {"substance": "SiaQ (Q-subunit of Photobacterium profundum SiaQM) (natural protein)", "values": [
      {"measurement": "stoichiometry N (SiaQ per SiaM)", "value": 1}
    ]}
  ]
}
